Experimental findings from PMC4434323 are described below.

The target of data set [1] is T1, ztf-6 (W06H12.1) (Caenorhabditis elegans) (UniProt G5EC77).
T1 sequence: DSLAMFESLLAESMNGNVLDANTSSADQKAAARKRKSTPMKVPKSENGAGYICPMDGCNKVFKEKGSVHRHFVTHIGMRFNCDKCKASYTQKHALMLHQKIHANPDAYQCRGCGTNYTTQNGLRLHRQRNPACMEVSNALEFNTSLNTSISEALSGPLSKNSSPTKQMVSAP

Data set [2] has as its target T2, T22C8.4 (T22C8.4) (Caenorhabditis elegans) (UniProt Q22677).
T2 sequence: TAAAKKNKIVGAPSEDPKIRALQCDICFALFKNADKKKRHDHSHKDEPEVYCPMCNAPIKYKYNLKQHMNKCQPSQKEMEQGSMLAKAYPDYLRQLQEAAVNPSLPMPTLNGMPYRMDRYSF

Data set [3] deals with T3, Y53H1A.2 (Y53H1A.2) (Caenorhabditis elegans) (UniProt B1V8K4).
T3 sequence: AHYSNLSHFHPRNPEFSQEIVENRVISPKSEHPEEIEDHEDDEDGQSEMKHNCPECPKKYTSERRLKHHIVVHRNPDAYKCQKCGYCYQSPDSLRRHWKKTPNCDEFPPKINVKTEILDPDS

In data set [4] the target is T4, ztf-19 (T27B1.2) (Caenorhabditis elegans) (UniProt Q22829).
T4 sequence: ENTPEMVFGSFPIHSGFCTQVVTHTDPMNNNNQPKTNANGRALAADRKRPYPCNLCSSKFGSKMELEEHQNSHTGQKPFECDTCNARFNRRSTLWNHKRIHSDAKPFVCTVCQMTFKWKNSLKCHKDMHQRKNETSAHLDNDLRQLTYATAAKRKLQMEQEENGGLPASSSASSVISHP

The target in data set [5] is T5, lin-29 (W03C9.4) (Caenorhabditis elegans) (UniProt G5EGB2).
T5 sequence: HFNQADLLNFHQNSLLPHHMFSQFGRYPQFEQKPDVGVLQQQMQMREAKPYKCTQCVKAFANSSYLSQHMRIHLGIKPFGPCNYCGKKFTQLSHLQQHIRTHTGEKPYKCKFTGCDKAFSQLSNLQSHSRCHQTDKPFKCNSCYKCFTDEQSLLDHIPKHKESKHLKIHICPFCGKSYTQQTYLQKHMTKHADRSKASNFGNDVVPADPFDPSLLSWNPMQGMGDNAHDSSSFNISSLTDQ

Data set [6] addresses T6, K11D2.4 (K11D2.4) (Caenorhabditis elegans) (UniProt G5EBU1).
T6 sequence: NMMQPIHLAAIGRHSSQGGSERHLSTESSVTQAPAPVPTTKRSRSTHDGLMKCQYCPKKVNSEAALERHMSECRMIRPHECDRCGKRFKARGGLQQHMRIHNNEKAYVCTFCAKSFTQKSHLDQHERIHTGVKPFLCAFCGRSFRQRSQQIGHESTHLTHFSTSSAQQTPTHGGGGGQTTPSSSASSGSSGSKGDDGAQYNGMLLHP

The target in data set [7] is T7, ztf-27 (T09F3.1) (Caenorhabditis elegans) (UniProt G5EDA0).
T7 sequence: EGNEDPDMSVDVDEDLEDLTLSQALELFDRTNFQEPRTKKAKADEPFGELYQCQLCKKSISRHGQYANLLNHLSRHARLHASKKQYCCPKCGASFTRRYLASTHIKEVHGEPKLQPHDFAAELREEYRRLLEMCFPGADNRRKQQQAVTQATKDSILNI

Sequence “GCTGAAAA (double strand) [8-mer GCTGAAAA]” came in with a binding signal (PBM E-score (-0.5 to 0.5)) in data set [1] of 0.492.

Regarding “CCCCTGCG (double strand) [8-mer CCCCTGCG]”, the binding signal (PBM E-score (-0.5 to 0.5)) in data set [2] worked out at 0.493.

In data set [1], “ATCTGAAA (double strand) [8-mer ATCTGAAA]” yielded a binding signal (PBM E-score (-0.5 to 0.5)) of 0.492.

“CCACCACC (double strand) [8-mer CCACCACC]” registered a binding signal (PBM E-score (-0.5 to 0.5)) in data set [3] of 0.486.

In turn, “CGGCCGCC (double strand) [8-mer CGGCCGCC]” yielded a binding signal (PBM E-score (-0.5 to 0.5)) in data set [3] of 0.489.

As to “AGCAGGGA (double strand) [8-mer AGCAGGGA]”, the binding signal (PBM E-score (-0.5 to 0.5)) in data set [2] turned out to be 0.466.

“ATTTCAGC (double strand) [8-mer ATTTCAGC]” displayed a binding signal (PBM E-score (-0.5 to 0.5)) in data set [1] of 0.492.

“AGCTGAAA (double strand) [8-mer AGCTGAAA]” showed a binding signal (PBM E-score (-0.5 to 0.5)) in data set [1] of 0.491.

Sequence “CCCCTGCA (double strand) [8-mer CCCCTGCA]” registered a binding signal (PBM E-score (-0.5 to 0.5)) in data set [2] of 0.493.

“ATTACAAC (double strand) [8-mer ATTACAAC]” showed a binding signal (PBM E-score (-0.5 to 0.5)) in data set [4] of 0.496.

With “CCCTGCTA (double strand) [8-mer CCCTGCTA]”, the binding signal (PBM E-score (-0.5 to 0.5)) in data set [2] stood at 0.486.

Turning to “CCCTGCTC (double strand) [8-mer CCCTGCTC]”, the binding signal (PBM E-score (-0.5 to 0.5)) in data set [2] worked out at 0.479.

“ACCACCGC (double strand) [8-mer ACCACCGC]” had a binding signal (PBM E-score (-0.5 to 0.5)) in data set [3] of 0.483.

Sequence “AGCAGGGG (double strand) [8-mer AGCAGGGG]” showed a binding signal (PBM E-score (-0.5 to 0.5)) in data set [2] of 0.499.

In data set [4], “AGTGTAAT (double strand) [8-mer AGTGTAAT]” yielded a binding signal (PBM E-score (-0.5 to 0.5)) of 0.497.

Regarding “GCTGAAAC (double strand) [8-mer GCTGAAAC]”, the binding signal (PBM E-score (-0.5 to 0.5)) in data set [1] was 0.495.

In data set [4], “CAGTGTAA (double strand) [8-mer CAGTGTAA]” displayed a binding signal (PBM E-score (-0.5 to 0.5)) of 0.494.

On to “ATTACACA (double strand) [8-mer ATTACACA]”, for which the binding signal (PBM E-score (-0.5 to 0.5)) in data set [4] is 0.493.

Regarding “GTTTCAGA (double strand) [8-mer GTTTCAGA]”, in data set [1], the binding signal (PBM E-score (-0.5 to 0.5)) was 0.494.

As for “ATTTTCAG (double strand) [8-mer ATTTTCAG]”, the binding signal (PBM E-score (-0.5 to 0.5)) in data set [1] came to 0.493.

Consider “GCAAAAAA (double strand) [8-mer GCAAAAAA]”, for which, in data set [5], the binding signal (PBM E-score (-0.5 to 0.5)) was 0.494.

“AAAAAAAT (double strand) [8-mer AAAAAAAT]”: the binding signal (PBM E-score (-0.5 to 0.5)) in data set [5] stood at 0.496; in data set [6] it was 0.498.

For the sequence “TAAAAAAA (double strand) [8-mer TAAAAAAA]”, the binding signal (PBM E-score (-0.5 to 0.5)) in data set [5] and in data set [6] was 0.498 in each case.

Turning to “AAAAAAAC (double strand) [8-mer AAAAAAAC]”, the binding signal (PBM E-score (-0.5 to 0.5)) in data set [5] amounted to 0.497; in data set [6], 0.498.

“AGTGTAAC (double strand) [8-mer AGTGTAAC]”: in data set [4], the binding signal (PBM E-score (-0.5 to 0.5)) stood at 0.491.

On to “ATAAAAAA (double strand) [8-mer ATAAAAAA]”, for which the binding signal (PBM E-score (-0.5 to 0.5)) in data set [5] and in data set [6] was 0.498 throughout.

On to “GGCTGAAA (double strand) [8-mer GGCTGAAA]”, for which, in data set [1], the binding signal (PBM E-score (-0.5 to 0.5)) was determined as 0.491.

“ATTTCAGA (double strand) [8-mer ATTTCAGA]” returned a binding signal (PBM E-score (-0.5 to 0.5)) in data set [1] of 0.491.

On to “CGGCCGGC (double strand) [8-mer CGGCCGGC]”, for which, in data set [3], the binding signal (PBM E-score (-0.5 to 0.5)) turned out to be 0.486.

“TAGTGTAA (double strand) [8-mer TAGTGTAA]”: the binding signal (PBM E-score (-0.5 to 0.5)) in data set [4] was found to be 0.495.

Take “CACCCTGC (double strand) [8-mer CACCCTGC]”: the binding signal (PBM E-score (-0.5 to 0.5)) in data set [2] turned out to be 0.49.

In data set [4], “TGTGTAAA (double strand) [8-mer TGTGTAAA]” yielded a binding signal (PBM E-score (-0.5 to 0.5)) of 0.491.

“AATTTCAG (double strand) [8-mer AATTTCAG]” came in with a binding signal (PBM E-score (-0.5 to 0.5)) in data set [1] of 0.493.

As for “CAGCAGGG (double strand) [8-mer CAGCAGGG]”, the binding signal (PBM E-score (-0.5 to 0.5)) in data set [2] was determined as 0.494.

In turn, “ACCCCTGC (double strand) [8-mer ACCCCTGC]” had a binding signal (PBM E-score (-0.5 to 0.5)) in data set [2] of 0.494.

In the case of “AGTTTCAG (double strand) [8-mer AGTTTCAG]”, the binding signal (PBM E-score (-0.5 to 0.5)) in data set [1] is 0.496.

As to “AAAAAACT (double strand) [8-mer AAAAAACT]”, the binding signal (PBM E-score (-0.5 to 0.5)) in data set [5] amounted to 0.495.

In turn, “GCAGGGGC (double strand) [8-mer GCAGGGGC]” came in with a binding signal (PBM E-score (-0.5 to 0.5)) in data set [2] of 0.498.

With “CGTTGTAA (double strand) [8-mer CGTTGTAA]”, the binding signal (PBM E-score (-0.5 to 0.5)) in data set [4] was 0.493.

In data set [7], “TGGTGCAA (double strand) [8-mer TGGTGCAA]” came in with a binding signal (PBM E-score (-0.5 to 0.5)) of 0.483.

In the case of “CCCTGCAG (double strand) [8-mer CCCTGCAG]”, the binding signal (PBM E-score (-0.5 to 0.5)) in data set [2] came to 0.483.

Regarding “CATAAAAA (double strand) [8-mer CATAAAAA]”, the binding signal (PBM E-score (-0.5 to 0.5)) in data set [5] came to 0.494.

For “TGGTGTAA (double strand) [8-mer TGGTGTAA]”, the binding signal (PBM E-score (-0.5 to 0.5)) in data set [7] turned out to be 0.48.

As to “AAAAAAAA (double strand) [8-mer AAAAAAAA]”, the binding signal (PBM E-score (-0.5 to 0.5)) in data set [5] worked out at 0.499; in data set [6], 0.5.

For “CCCCTGCC (double strand) [8-mer CCCCTGCC]”, the binding signal (PBM E-score (-0.5 to 0.5)) in data set [2] stood at 0.479.

The sequence “GTGTAACA (double strand) [8-mer GTGTAACA]” had a binding signal (PBM E-score (-0.5 to 0.5)) in data set [4] of 0.494.

As to “ACCCTGCT (double strand) [8-mer ACCCTGCT]”, the binding signal (PBM E-score (-0.5 to 0.5)) in data set [2] amounted to 0.487.

In turn, “CGCTGAAA (double strand) [8-mer CGCTGAAA]” came in with a binding signal (PBM E-score (-0.5 to 0.5)) in data set [1] of 0.49.

Consider “GTAAAAAA (double strand) [8-mer GTAAAAAA]”, for which the binding signal (PBM E-score (-0.5 to 0.5)) in data set [5] worked out at 0.494.

Regarding “ATGGTGTA (double strand) [8-mer ATGGTGTA]”, the binding signal (PBM E-score (-0.5 to 0.5)) in data set [7] worked out at 0.485.

With “CATTACAC (double strand) [8-mer CATTACAC]”, the binding signal (PBM E-score (-0.5 to 0.5)) in data set [4] is 0.494.

For the sequence “TGCTGAAA (double strand) [8-mer TGCTGAAA]”, the binding signal (PBM E-score (-0.5 to 0.5)) in data set [1] was 0.494.

“TGCACCAA (double strand) [8-mer TGCACCAA]” gave a binding signal (PBM E-score (-0.5 to 0.5)) in data set [7] of 0.488.

Regarding “GAAAAAAA (double strand) [8-mer GAAAAAAA]”, the results for the binding signal (PBM E-score (-0.5 to 0.5)) in data set [5] and in data set [6] were 0.495 and 0.498, respectively.

“AAAAAAAG (double strand) [8-mer AAAAAAAG]”: the binding signal (PBM E-score (-0.5 to 0.5)) in data set [5] is 0.495; in data set [6], 0.498.

Take “AGAAAAAA (double strand) [8-mer AGAAAAAA]”: the binding signal (PBM E-score (-0.5 to 0.5)) amounted to 0.494 in data set [5] and 0.498 in data set [6].

“GTCTGAAA (double strand) [8-mer GTCTGAAA]” showed a binding signal (PBM E-score (-0.5 to 0.5)) in data set [1] of 0.495.

In turn, “GTGTAATA (double strand) [8-mer GTGTAATA]” yielded a binding signal (PBM E-score (-0.5 to 0.5)) in data set [4] of 0.497.

The sequence “TATAAAAA (double strand) [8-mer TATAAAAA]” registered a binding signal (PBM E-score (-0.5 to 0.5)) in data set [5] of 0.494.

Take “TCTGAAAA (double strand) [8-mer TCTGAAAA]”: in data set [1], the binding signal (PBM E-score (-0.5 to 0.5)) amounted to 0.492.

The sequence “CTTTACAC (double strand) [8-mer CTTTACAC]” came in with a binding signal (PBM E-score (-0.5 to 0.5)) in data set [4] of 0.494.

For “GTTTTTTA (double strand) [8-mer GTTTTTTA]”, the binding signal (PBM E-score (-0.5 to 0.5)) in data set [5] was found to be 0.494.

Regarding “AGTGTAAA (double strand) [8-mer AGTGTAAA]”, in data set [4], the binding signal (PBM E-score (-0.5 to 0.5)) amounted to 0.494.

With “CCCCCTGC (double strand) [8-mer CCCCCTGC]”, the binding signal (PBM E-score (-0.5 to 0.5)) in data set [2] came out at 0.488.

For the sequence “CAAAAAAA (double strand) [8-mer CAAAAAAA]”, the binding signal (PBM E-score (-0.5 to 0.5)) was found to be 0.496 in data set [5] and 0.498 in data set [6].

With “GCAGGGGA (double strand) [8-mer GCAGGGGA]”, in data set [2], the binding signal (PBM E-score (-0.5 to 0.5)) stood at 0.495.
